Assay: soluble on expression in E. coli; label from the status in PepcDB or PDB records

Row | Sequence | soluble on expression in E. coli
1 | NSLFNQEVQIPLTESYCGPCPKNWICYKNNCYQFFDESKNWYESQASCMSQNASLLKVYSKEDQDLLKLVKSYHWMGLVHIPTNGSWQWEDGSILSPNLLTIIEMQKGDCALYASSFKGYIENCSTPNTYICMQRTV | soluble
2 | MSFDLSWYGVPVEEEAKEEEAIVYGIPNNPELEQIIPAKFHSFVNEVIGDYNTLSDEEFWKKYNLREIWFDVKEYEEDNKAKNMLGTIIVFLLVEKEYILQLDYKEDLVDYIEDIDNYWGKEEVKLISFEVDNDQQYYAYVPKTAAIDSLYEVKLTEVEKIEEV | not soluble
3 | MSTILSLAPQNVWKHFYSLTQIPRPSGHMEKVTEFLINFGKGLGLESFVDEAGNVIIRKPATPGMENRKGVILQAHMDMVPQKNNDTVHDFEKDPIETYIDGDWVKAKGTTLGADNGLGVAAIMAVLEANDLKHGPLEALITKDEETGMYGAFGLKPGTVNGEILLNLDSEDEGELYIGCAGGMDVTATLEYKEVAPEEGDVAVKVSLKGLRGGHSGLEINEGRANANKLLVRFVREAVASYEARLVSWDGGNMRNAIPREACAVLAIPAENEEELLGLVKYCEDLFNEEFSAIETPISFTAERVELPAGEVPEEIQDNLIDAIFACQNGVTRMIPTVPDTVETSSNLAIITIGGGKAEIKILARSSSDSMKEYLTTSLESCFSMAGMKVEMTGGYSGWQPNVESPILHAMKESYKQQFGVEPAVKVIHAGLECGIIGAIIPGLDMISFGPTLRSPHSPDERALIPTVQKFYDFLVATLAQTPTKLEHHHHHH | soluble
4 | MLFISSDNQKEKRGMAGNKKINRREEILQALAEMLESNEGASRITTAKLAKQVGVSEAALYRHFPSKARMFEGLIEFIEESLMSRINRIFDEEKDTLNRIRLVMQLLLAFAERNPGLTRILSGHALMFENERLRDRINQLFERIETSLRQILRERKLREGKSFPVDENILAAQLLGQVEGSLNRFVRSDFKYLPTANFDEYWALLSAQIK | soluble
5 | MDHRRLWRAANRLASDRLGSGEMCCALTSPTSTAQSPSTSFFFGSSLPFLLATIPHTLISAIAEHAILHAWYGGPHVYPDAKLPCPTATFVFKDSPLLRVDDVTSLQWDRAQAANFLVAVLRQPAVQKELRQRLWSAVQNCHRGVLRKLESLAVQKDVEGASKEAAADRLILLDQEPGMPSPPSLSLREVRDDLFSFDELLYFVRVSPSTSSTSRQQRVECESLRSTHLFRFVTSRADVAAALRDRPRSNVSDLLFCVSLRNGDTSAKASSAPVSLSTRDKLWLLLSEMVRLRYLVAYLLNFEVMLHRVRNSTRHSQRGQSTSKEVDSAGFPGNSSSEHADAQDAENAKCIAAVFRFLDIRLHTRLAVSPHHRRFLRHARVRHCERSATPEPPDRATAAHEATDADTSVRHEARRYATVQELFSAFSKALEESTTPPSQLPATVASFTSLAKSPGEGQGAAENGIEAMSKRPDHMRGRSARQNVVQARATSDGPSSLSDTDDEFLKAIVSATRQDQPPDSTVQSTPMRATHRGGVKSPSANPGELPCSRGLPGRRCLTAERSTTCLPQSRRAAEDPHPFVDVVFERKSNRSKWPFQALRARTNASNFKVRFGGSHDASSHAAVICFQLSCTREEREKAEIAPLSGKSAADLLQQYPYVTHVNGISARKVELVVRLFRSAHVLKLRLARRPPDR | soluble
6 | MRFFIALPAHAKRCRRAWRMEFISALPVGFAMNRRGLELRELLPLIPAEKLLIETDAPYLLPRDLTPKPSSRRNEPAHLPHILQRIAHWRGEDAAWLAATTDANVKTLFGIAFLEHHHHHH | not soluble
7 | MSESSRIREKYPDRIPVIVEKAGQSDVPDIDKKKYLVPADLTVGQFVYVVRKRIKLGAEKAIFVFVKNTLPPTAALMSAIYEEHKDEDGFLYMTYSGENTFGSLTVA | soluble
8 | SNAMAVETLYRSTRDLETTFVDRKLADAHDQMLELAELLTDVLIKNVPGLSEKHAEDASIYMAKNRAVFAAAFKNNATALSELSEPAESEG | soluble
9 | MAKWLRDYLSFGGRRPPPQPPTPDYTESDILRAYRAQKNLDFEDPYEDAESRLEPDPAGPGDSKNPGDAKYGSPKHRLIKVEAADMARAKALLGGPGEELEADTEYLDPFDAQPHPAPPDDGYMEPYDAQWVMSELPGRGVQLYDTPYEEQDPETADGPPSGQKPRQSRMPQEDERPADEYDQPWEWKKDHISRAFAVQFDSPEWERTPGSAKELRRPPPRSPQPAERVDPALPLEKQPWFHGPLNRADAESLLSLCKEGSYLVRLSETNPQDCSLSLRSSQGFLHLKFARTRENQVVLGQHSGPFPSVPELVLHYSSRPLPVQGAEHLALLYPVVTQTP | soluble
10 | MGSDKIHHHHHHMKLMRIQEMEEYILSHGTVSLDELCQVFNVSKNTVRRDINKLTEKGAIEKVYGGVTSIEKTALVPFENRTIQHQDEKTKIAHYASRFIEDHDLVFIDSGTTTKSILDTLDPAKNVTILTNSLDIINAASALKNINLIIIGNNYKRKTRSFVGMDDPAMLDKYNINKAFMSATGTTLTHGLTNSDLLEYEIKKRISEKAKEVYLLADHSKFGKSTLLTYAPFDRLHCIVTSQPLDDEYTQYCNEHQIGIHLA | not soluble
11 | MGSDKIHHHHHHMIRREDYQYLRKLNDFRYFSIEQFDKIVGQMEFRKAKKDHILFFEGDKRDKLFLVTSGYFKVEQSDQSGTFMYTDFIRHGTIFPYGGLFTDDYYHFSVVAMTDVTYFYFPVDLFEDYSLENRLQMKHLYSKMSKLLELHELRVRNLITSSASSRVIQSLAILLVEMGKDSDTLPFQLTTTDIAQISGTTRETVSHVLRDLKKQELITIKGKYLTYLDKDYFLQYTK | not soluble
12 | MFIREEEQMKRMIITIGRQSGSSGRKVGELLAERLSLPLYGKAELQKIAEGTDDYEEVQAFYEEEPVNSLLYAIAMSQFEQEVGRIPFQRIRELASKESCIIIGRCAGHIFREDPEAVRVFIHADPKIRVQRIMEREGLSETKAKKFLEDTDSRRASFHKYYTKQEWGLAQDYELCLDSGVLGIEGTVEVLTEYLRFRGFLGNE | not soluble
13 | MGSVRKASAWLGLVDDNDDERYYDDDYAEGQESGEAWVTDPRVKVASETAEEKGRRIGTVTPDSFRDARGIGELFRDGVPVIINLTAMEPTDAKRVVDFAAGLTFGLRGTIERVATRVFLLTPANTEIVSGEAAGRPTDGFFNQSLEHHHHHH | not soluble
14 | MARRQTSSNGAGETRENLLRLAARIFSAQGYSGTTMRSIAQQAGIETASIYYHFPSKEDLVDEVMEIGATAIIQHMTERIEALGDGATAEERFRAAVLGQMAGMVKHGEYTLASSSLIEQLPEKVRERQSKRRESYQKLWAGLLEDLRAEGRLRSDVDLHLARMFILGSVQSIRYWFNPRKGSLEKVAAQLCDLFFEGVGQRG | soluble
15 | MVSAPASASSSPASSSFQSFFWQAAARPRAEPKRQALKRITLMTTDKTSPYEIHDDRFRHLIVGNAELEELYSGCRWAEGPVWFADLNCLLFSDIPNERMLRWVPDGGISVFRQPSNFTNGNTRDRQGRLVSCEHGGRRVTRTEVDGSITVLADSYGGKRLNSPNDVVVKSDGSVWFTDPTYGILSDYEGYKAEPEQKTRNVYRLDPATGKIDIAIDDFVQPNGLAFSPDETKLYVADSSYSHDISRPRHIRVFDVVDGVRLANGREFCNLDNGLPDGFRLDTAGNLWTSAGDGVHCFAPDGRLIGKIKVPQTVANLTFGGPKKNRLFITATKSLYSVYVAATGAQTPLEHHHHHH | soluble
16 | MGSDKIHHHHHHMKAPLVSIIIPVWNLWELTCACLDSIRAHTPGNAVEVIVVDNGSDDTTATALAPTGEGLFGARFRRIRLETNRGFAVACNLGAAKAQGTYLLLLNNDTVLSPGWLPPLLREFDDEPRTGAAGPLLVYPDSGRVQHCGIAFAPTLQTEHLYANFPATHPAVRARRTLQAITGAAMLLPTALFRQCGGFHEGYKNGCEDLELCCRIREQGLRLAVVPESLVAHHESRTPGRKEHDAANATLLNRRCSGCFGPDLHRHALRDGFAIALTPWLDTYLTLPPGREAALTREHITDFDPGRCWETLQGEPLWHGGYEMLCSILDEAGRHAESAGVRLLQAGFFPTLPGFRQLARSAALSGNDELARQAAEKMQHIGGILEDPEPLVTRARGLVRWARRAGEPAVEALYTGWLTDIGLSADD | not soluble
17 | VIGDMNPDFLGSVSTGLTWKNLSFRMALDMRFGGKVAVYGNRYGTAYGWTESSLKFRDEAHGGMTWTSQYLNADGSQSGSYGVTYHDGMIPQGIFASGTQVTGIDGKTHDVSGMSYQQAYENGILEPMHAASYYNYANQWSTGVTNDGWIHDLKYIALREITVGYTFPSNIAGKIGAKRLGVSFSARNLGYLYNSLPNDVNPEGVRGNLSGEFRIRSFDPYTANYTMTINVGF | not soluble
18 | MSLTLADKVVYEEEIQKSRFIAKAAPVASEEEALAFLAENREPEATHNGHAYKIGLLYRFSDDGEPSGTAGRPILHAIEAQGLDRVAVLVVRYFGGVKLGAGGLVRAYGGVAAEALRRAPKVPLVERVGLAFLVPFAEVGRVYALLEARALKAEETYTPEGVRFALLLPKPEREGFLRALLDATRGQVALE | soluble
19 | MDNKLDVFRRELVDVEGIPLFWSIAEHWSQVESFEARPDDILISTYPKSGTTWVSEILDLIYNNGDAEKCKRDAIYKRVPFMELIIPGITNGVEMLNNMPSPRIVKTHLPVQLLPSSFWKNDCKIIYVARNAKDVVVSYYYFYQMAKIHPEPGTWEEFLEKFMAGQVSFGPWYDHVKSWWEKRKEYRILYLFYEDMKENPKCEIQKILKFLEKDIPEEILNKILYHSSFSVMKENPSANYTTMMKEEMDHSVSPFMRKGISGDWKNQFTVAQYEKFEEDYVKKMEDSTLKFRSEI | soluble
20 | MEENTEQRVDLTLFSEKIQELKDQIASVIVGQEQTVDLVLAAILANGHVLIEGVPGVAKTLLARLTARLIDADFSRIQFTPDLMPSDVLGTTVFNMKTNDFDFHQGPIFADIVLVDEINRAPAKTQAALFEVMEERQISIDGITHKMGELYTILATQNPVEQEGTYKLPEAQLDRFLMKITMDYPSLEEEVDILERHHTNASLIKLDDIKPAITKEELLSLRAFMNQVFVDRTLLQYIALIVQQTRTSKAVYLGASPRASVAMLQASKAYALLQGRDFVTPEDIKFVAPYVLQHRLILTAEAEMEGYSPVKVTQRLIDKVEVPKLEHHHHHH | soluble
21 | MAVIVRKWFGLGRLPADLRCQVEAEGLIYLAEYVAVTRRFTGVIPGLRASHSIASYVGALAFTEQRVLGTLSMVPKLAGRVVDARWDGPQAGAATAEISPTGLQLDLDVADVDPKFSGQLALHFKATIGEDVLSRLPRRSLAFDVPAEYVNLAVGVTYSP | soluble
22 | MSDKLTEKTVKLDTPIMRGKTEITEIVLRKPQSGALRGTRLQAIMDMDVGAMMTVIPRISTPTLTAQEMAELDPADLTALSVEVVTFLLKKSVLAGLPTA | not soluble
23 | MKAVQGDPNWNLVTDTYIEPNNFAELFSLLVPCHPKGEGKERTILVWKEKEFYKEENLAAFIVYGMNKAKKLPQFHKDEIPTLVRILRLCQEIGWYEEANDFMIAQGLAEFVHTSLEYETWDLLTQSVALNYLIIKYRIGELTDRDIEIWDRVKFNEKCITDCKHLLSHKEVLEFTFFYMCKRAKSLSKEQLNSDMMSLAMYCNTFVYDLYTHDLLRKYRKCTDFLSYYGPSQAVLACQRAVLSQISDRLDPLKTTHVDDYLYVMKEMMEHMTIGVMDRYGHFIGKLLSYVPFFEMIQVPQHAYYCEELLYICKGIEYKEETLRNYIFIQLHDCLPSFFRLFLKNKRYATIHDILFYWCDDEQRMSLEKKYNLSFIYEKYACG | not soluble

Source: the DeepSol protein solubility set
